Data reported in publication PMC3909815 (Molecular imaging and biology : MIB : the official …, 2012).

Legend:
[1] = tested on: LNCaP tumour; experiment: Biodistribution/pHe modulation study; assay type: in vivo, mouse; conditions: 24 h p.i., bicarbonate per os 5 days, P=0.020, 95% CI 10%, 42%
[2] = Biodistribution of 99mTc-AH114567 in tumoured mice
[3] = Radiochemical purity of the preparation over time; assay type: physicochemical; conditions: measured ≈24 h p.i., preparation used for SPECT imaging
[4] = tested on: PC-3 tumour; experiment: Biodistribution/pHe modulation study; assay type: in vivo, mouse; conditions: PC-3, 24 h p.i., bicarbonate per os 5 days; P=0.053; 95% CI 0%, 51%
[5] = 60 min p.i., i.v., mean±SD of 2 independent studies
[6] = tested on: mice; experiment: Toxicity of pHe marker in mice; assay type: in vivo, mouse; conditions: 7 mmol/kg i.p.

Compound | tumour uptake ratio (uptake difference with bicarbonate relative to standard) [1] | lung/blood uptake ratio at 4 h p.i. ([2]; 4 h p.i.) | lung/blood uptake ratio at 24 h p.i. ([2]; 24 h p.i.) | kidney uptake at 24 h p.i. ([2]; 24 h p.i., C57BL/6 mice) | blood uptake at 24 h p.i. ([2]; 24 h p.i., all three models) | lung/blood uptake ratio, initial ([2]; initially) | uptake in liver ([2]; over the first 24 h p.i., liver+gall bladder, LLC tumoured C57BL/6 mice) | skin uptake ([2]; range over time points) | uptake in bone ([2]; typically) | radiochemical purity (RCP) of the preparation [3] | tumour uptake ratio (uptake difference with bicarbonate relative to standard) [4] | integrated radio-HPLC signal of the parent compound in rat plasma [5] | toxicity for mice [6]
ACEQNPIY{WARYADWLFTTPLLLLDLALLV}DADEGTG [99mTc-AH114567] | 29% | ≈ 2 | ca. 1 | ~3 % ID | 1 to 2 % ID/g | ≈ 3 | 25 to 15 % ID | 3 to 8 % ID | 2 to 3 % ID | ≥ 85% | 29% | 86±6% | 
CCOP(=O)(OCC)C1(C)CCCN1 (stereo not shown) |  |  |  |  |  |  |  |  |  |  |  |  | toxic
